Measurements from patent US20240101716A1 (LA NOVA MEDICINES DEVELOPMENT, published 2024).
Where a chain is given by its changes, count along the chain named.

B1: AS06750 sdAb (VHH)
VHH: AVQLVESGGGLVQAGDSLRLSCTASGRTFLTYAVGWFRQAPGTEREFVAGIRWSGGYTDYADSVKGRFTISRDNAKNTVYLQMNSLKPEDTAVYYCAAHRTIATIPEKYEYEYWGQGTQVTVSS
notes: His6-tagged llama sdAb
B2: AS06617 sdAb (VHH)
VHH: DVQLVESGGGLVQAGDSLRLSCAASGRTFISYAVGWFRQAPGSEREFVAGIRWNGIHTDYADSVKGRFTISRDNAKNTVTLEMTSLKPEDTAVYYCAAHRTIATIPEKYEYEYWGQGTQVTVSS
notes: His6-tagged llama sdAb
B3: AS06618 sdAb (VHH)
VHH: B1 VHH with A1E, G10R, Q13R, T23A, T31S, D62E, S63A
notes: His6-tagged llama sdAb
B4: AS06682 sdAb (VHH)
VHH: B1 VHH with T31S, G56E, Y57H, D62A, R100T, E107K
notes: His6-tagged llama sdAb
B5: AS06775 sdAb (VHH)
VHH: B1 VHH with A1Q, T23A, Y32L, G56S, Y57G, R100T, Q116R
notes: His6-tagged llama sdAb
B6: AS12003 sdAb (VHH)
VHH: B1 VHH with A1E, T23A, T31S, Y57S, I105V, E107N, E112D, Y113T
notes: His6-tagged llama sdAb
B7: AS06778 sdAb (VHH)
VHH: QVQLVESGGGLVQAGGSLKLSCAASGRTFITYAMGWFRQAPGKERELVAAISWSGSSTYSADSVKGRFTISRDNAKNTVYLQMNSLKPEDTAVYYCAAEVSARTGEHLPKLMGDYWGQGTQVTVSS
notes: His6-tagged llama sdAb
B8: AS06628 sdAb (VHH)
VHH: QVQLVESGGGLVQAGGSLRLSCAASGRTFITYAIGWFRQAPGKEREFVTAINWSGSMTSYADSVKGRFTISRDNNKNMVYLQMNSLKPEDTAVYYCAAHRGAIAPMTQSVYDYWGQGTQVTVSS
notes: His6-tagged llama sdAb
B9: AS06703 sdAb (VHH)
VHH: B8 VHH with Q1E, Q13R, M78T, V93L, R100L, T107S
notes: His6-tagged llama sdAb
B10: AS06730 sdAb (VHH)
VHH: B8 VHH with T49S, N75A, M78T, S85G, M106I, T107A, D112T, Y113N
notes: His6-tagged llama sdAb
B11: AS06791 sdAb (VHH)
VHH: B8 VHH with N75A, M78T, M83I, S85G, P88S
notes: His6-tagged llama sdAb
B12: AS11947 sdAb (VHH)
VHH: DVQLVESGGGLVQAGDSLRLTCSASGRTFISYAVGWFRQAPGTEREFVAGIRWNGISTDYTDSVKGRFTISRDNAKNTVYLQMNSLKPEDTAIYYCAAHRTIATIPNKYEYDHWGQGTQVTVSS
notes: His6-tagged llama sdAb
B13: AS11948 sdAb (VHH)
VHH: EVQLVESGGGLVQAGDSLRLSCVASGRTFVTYGMGWFRQAPGKEREFVAAINWSGSMTSYGDSVKGRFAISRDNAKNTVYLQMNSLKPEDTAVYYCAAALGAVVYTTREPYTYWGRGTQVTVSS
notes: His6-tagged llama sdAb
B14: AS06686 sdAb (VHH)
VHH: AVQLVESGGGLVQAGDSLRLACAASGRTFLTYALGWFRQAPGKEREFVAGVSWSGSSTKYADSVKGRFTISRDNAKNTVYMQMNSLKPEDTAVYYCAAQISAIVPISAHEYQYWGQGTQVTVSS
notes: His6-tagged llama sdAb
B15: PD-L1/SIRPa-HC2 (bispecific antibody, human IgG4 S228P, kappa)
heavy: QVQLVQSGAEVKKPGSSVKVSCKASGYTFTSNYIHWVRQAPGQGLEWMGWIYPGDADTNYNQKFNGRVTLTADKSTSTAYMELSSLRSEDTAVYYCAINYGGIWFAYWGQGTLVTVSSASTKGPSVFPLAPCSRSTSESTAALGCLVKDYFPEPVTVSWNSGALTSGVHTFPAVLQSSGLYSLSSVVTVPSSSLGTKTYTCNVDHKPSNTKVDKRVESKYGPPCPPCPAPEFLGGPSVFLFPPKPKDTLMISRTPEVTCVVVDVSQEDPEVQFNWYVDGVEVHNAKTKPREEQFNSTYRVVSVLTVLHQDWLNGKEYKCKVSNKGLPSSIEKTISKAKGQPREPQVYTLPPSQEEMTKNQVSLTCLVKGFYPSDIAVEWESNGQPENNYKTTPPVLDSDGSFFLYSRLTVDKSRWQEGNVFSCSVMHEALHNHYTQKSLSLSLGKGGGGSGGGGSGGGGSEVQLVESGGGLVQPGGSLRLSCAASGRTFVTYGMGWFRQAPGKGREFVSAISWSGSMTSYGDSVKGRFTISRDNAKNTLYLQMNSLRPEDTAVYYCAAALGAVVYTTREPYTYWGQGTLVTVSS
light: DIQMTQSPSSLSASVGDRVTITCQASQDIGNKLIWYQQKPGKAPKLLIYYVTNLPGGVPSRFSGSGSGTDFTLTISSLQPEDFATYYCLQYKQNPLTFGQGTKLEIKRTVAAPSVFIFPPSDEQLKSGTASVVCLLNNFYPREAKVQWKVDNALQSGNSQESVTEQDSKDSTYSLSSTLTLSKADYEKHKVYACEVTHQGLSSPVTKSFNRGEC
B16: PD-L1/SIRPa-LC1 (bispecific antibody, human IgG4 S228P, kappa)
heavy: not shown
light: EIVLTQSPGTLSLSPGERATLSCRASSSVSSSYLYWYQQKPGQAPRLLIYSTSNLASGIPDRFSGSGSGTDYTLTISRLEPEDAAVYFCHQWYSYPRTFGGGTKVEIKRTVAAPSVFIFPPSDEQLKSGTASVVCLLNNFYPREAKVQWKVDNALQSGNSQESVTEQDSKDSTYSLSSTLTLSKADYEKHKVYACEVTHQGLSSPVTKSFNRGECGGGGSGGGGSGGGGSEVQLVESGGGLVQPGGSLRLSCAASGRTFVTYGMGWFRQAPGKGREFVSAISWSGSMTSYGDSVKGRFTISRDNAKNTLYLQMNSLRPEDTAVYYCAAALGAVVYTTREPYTYWGQGTLVTVSS
B17: PD-L1/SIRPa-LN1 (bispecific antibody, human IgG4 S228P, kappa)
heavy: not shown
light: EVQLVESGGGLVQPGGSLRLSCAASGRTFVTYGMGWFRQAPGKGREFVSAISWSGSMTSYGDSVKGRFTISRDNAKNTLYLQMNSLRPEDTAVYYCAAALGAVVYTTREPYTYWGQGTLVTVSSGGGGSGGGGSGGGGSEIVLTQSPGTLSLSPGERATLSCRASSSVSSSYLYWYQQKPGQAPRLLIYSTSNLASGIPDRFSGSGSGTDYTLTISRLEPEDAAVYFCHQWYSYPRTFGGGTKVEIKRTVAAPSVFIFPPSDEQLKSGTASVVCLLNNFYPREAKVQWKVDNALQSGNSQESVTEQDSKDSTYSLSSTLTLSKADYEKHKVYACEVTHQGLSSPVTKSFNRGEC
B18: PD-L1/SIRPa-HN1 (bispecific antibody, human IgG4 S228P, kappa)
heavy: not shown
light: EIVLTQSPGTLSLSPGERATLSCRASSSVSSSYLYWYQQKPGQAPRLLIYSTSNLASGIPDRFSGSGSGTDYTLTISRLEPEDAAVYFCHQWYSYPRTFGGGTKVEIKRTVAAPSVFIFPPSDEQLKSGTASVVCLLNNFYPREAKVQWKVDNALQSGNSQESVTEQDSKDSTYSLSSTLTLSKADYEKHKVYACEVTHQGLSSPVTKSFNRGEC
notes: Format II: sdAb at the N-terminus of the heavy chain (248G3F6); also called PD-L1/SIRPα-HN1
B19: HSP210-02-hz52 (antibody, V domains shown)
VH: QVQLVQSGAEVKKPGASVKVSCKASGFNFEDTYMHWVRQAPGQGLEWMGRIDPADADTKYNPKFQDRVTITVDTSTNTAYMELSSLRSEDTAVYYCVRGNYVNWGQGTTVTVSS
VL: EIVLTQSPGTLSLSPGERATLSCRASSSVSSSYLYWYQQKPGQAPRLLIYSTSNLASGIPDRFSGSGSGTDYTLTISRLEPEDAAVYFCHQWYSYPRTFGGGTKVEIK
notes: humanized 248G3F6, VH v5 + VL v2; also called SIRPa IgG#1 02-hz52
B20: HSP210-03-hz51 (antibody, V domains shown)
VH: QVQLVQSGAEVKKPGSSVKVSCKASGYTFTSNYIHWVRQAPGQGLEWMGWIYPGDADTNYNQKFNGRVTLTADKSTSTAYMELSSLRSEDTAVYYCAINYGGIWFAYWGQGTLVTVSS
VL: DIQMTQSPSSLSASVGDRVTITCQASQDIGNKLIWYQQKPGKAPKLLIYYVTNLPGGVPSRFSGSGSGTDFTLTISSLQPEDFATYYCLQYKQNPLTFGQGTKLEIK
notes: humanized 300A6A6, VH v5 + VL v1; also called SIRPa IgG#2 03-hz51

Tests used:
[1] = target: human PD-L1 on CHO-K1 cells (human, UniProt Q9NZQ7 19-290); assay: cell-based or functional assay
[2] = target: T1, recombinant human PD-L1 His protein (human, UniProt Q9NZQ7 19-239); assay: SPR Biacore T200, PD-L1 His on chip, sdAb analyte
T1 construct: not shown: His tag
Experimental: Affinity constant (Kd) of each sdAb and HCAb was determined by surface plasmon resonance (SPR) on a BIAcore T200 instrument. Briefly, PD-L1 His was amine-coupled to a CMS sensor chip at a density of no higher than 100 RU. […] Flow rate was 30 μl/min in all experiments. Association and dissociation phases were 5 and 10 min, respectively. The chip was regenerated using Glycine/HCl pH 1.5. Binding curves at different concentrations of sdAbs and HCAbs were used to calculate the kinetic parameters kₒₙ, koff and KD.

[3] = target: PD-L1 (blocking assay of Example 11) (UniProt Q9NZQ7 19-239, limits assumed); assay: cell-based or functional assay
PD-L1 expressed on cells = target: T2, PD-L1 expressed on cells (UniProt Q9NZQ7 19-290, limits assumed); assay: FACS binding test on PD-L1 cell line, Geom.Mean; unit from the axis log(nm)
T2 construct: whole, on cells

[4] = target: T3, recombinant human SIRPα variant 2 protein (human, UniProt P78324 31-370, limits assumed); assay: SPR Biacore 8K, antibody captured, antigen analyte
T3 construct: polymorphic variant 2; also called SIRPα v2; hSIRPαV2
Experimental: The binding kinetics assay of antibody to antigen was performed using Biacore 8K system through human antibody capture approach. The […] Fc lgG were immobilized on CM5 sensor chip according to the manufactory's instruction. The test antibody was injected and captured by the immobilized anti-human Fc lgG. […] The assay system was regenerated by injection of 10 mM Glycine-HCl pH 1.5 for 30 seconds. The running buffer was HBS-EP+ (10 mM HEPES, pH 7.4, 150 mM NaCl, 3 mM EDTA and 0.05% P20). The assay temperature was 25° C., and the association and dissociation time were 180 and 600 seconds, respectively.

PD-L1 (blocking assay of Example 11), sequence (Q9NZQ7 19-239 limits assumed): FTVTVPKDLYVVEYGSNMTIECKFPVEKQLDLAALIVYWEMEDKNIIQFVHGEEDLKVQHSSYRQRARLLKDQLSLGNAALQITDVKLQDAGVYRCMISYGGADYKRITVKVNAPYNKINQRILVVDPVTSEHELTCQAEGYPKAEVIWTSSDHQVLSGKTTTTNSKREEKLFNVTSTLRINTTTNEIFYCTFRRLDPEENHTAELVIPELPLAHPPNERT
T1 sequence (Q9NZQ7 19-239 limits assumed): as above
human PD-L1 on CHO-K1 cells, sequence (Q9NZQ7 19-290): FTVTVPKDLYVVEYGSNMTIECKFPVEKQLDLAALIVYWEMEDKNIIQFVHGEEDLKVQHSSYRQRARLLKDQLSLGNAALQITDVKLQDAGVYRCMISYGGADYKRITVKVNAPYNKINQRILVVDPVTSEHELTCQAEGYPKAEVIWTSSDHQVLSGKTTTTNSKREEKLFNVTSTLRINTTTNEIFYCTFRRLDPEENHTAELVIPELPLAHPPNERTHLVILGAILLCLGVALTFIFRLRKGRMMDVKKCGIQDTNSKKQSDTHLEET
T3 sequence (P78324 other isoform, or with tags, fused parts or gaps mutant limits assumed): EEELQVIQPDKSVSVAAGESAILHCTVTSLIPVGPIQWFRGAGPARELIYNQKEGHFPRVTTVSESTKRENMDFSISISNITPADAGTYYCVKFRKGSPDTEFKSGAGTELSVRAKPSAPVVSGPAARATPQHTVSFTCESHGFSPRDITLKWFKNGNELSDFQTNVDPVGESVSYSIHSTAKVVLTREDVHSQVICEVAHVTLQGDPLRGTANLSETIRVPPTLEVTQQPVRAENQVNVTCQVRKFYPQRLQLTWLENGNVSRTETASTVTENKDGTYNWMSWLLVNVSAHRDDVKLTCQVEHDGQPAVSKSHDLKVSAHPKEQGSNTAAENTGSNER
T2 sequence (Q9NZQ7 19-290 limits assumed): as the sequence (Q9NZQ7 19-290) above

Binder	EC50 of PD-L1-based blockade assay (luciferase reporter) [1]	Kd [2]	koff [2]	kon [2]	EC50, luminescence (RLU) in the PD-1/PD-L1 Blockade Assay [3]	EC50 (PD-L1 expressed on cells)	Kd [4]	koff [4]	kon [4]
B1	33.6 nM	0.109 nM	0.000223 s⁻¹	2.05e+06 M⁻¹ s⁻¹	–	–	–	–	–
B2	63.8 nM	0.249 nM	0.000464 s⁻¹	1.86e+06 M⁻¹ s⁻¹	–	–	–	–	–
B3	44.5 nM	0.17 nM	0.000245 s⁻¹	1.44e+06 M⁻¹ s⁻¹	–	–	–	–	–
B4	42 nM	0.203 nM	0.000342 s⁻¹	1.68e+06 M⁻¹ s⁻¹	–	–	–	–	–
B5	75.5 nM	0.156 nM	0.000247 s⁻¹	1.58e+06 M⁻¹ s⁻¹	–	–	–	–	–
B6	96.2 nM	0.56 nM	0.00155 s⁻¹	2.76e+06 M⁻¹ s⁻¹	–	–	–	–	–
B7	20.1 nM	0.0233 nM	4.42e-05 s⁻¹	1.9e+06 M⁻¹ s⁻¹	–	–	–	–	–
B8	24.2 nM	0.0526 nM	0.000215 s⁻¹	4.1e+06 M⁻¹ s⁻¹	–	–	–	–	–
B9	15 nM	0.0387 nM	6.96e-05 s⁻¹	1.8e+06 M⁻¹ s⁻¹	–	–	–	–	–
B10	17.2 nM	0.0195 nM	0.000139 s⁻¹	7.11e+06 M⁻¹ s⁻¹	–	–	–	–	–
B11	36.5 nM	0.153 nM	0.000239 s⁻¹	1.56e+06 M⁻¹ s⁻¹	–	–	–	–	–
B12	77.2 nM	0.617 nM	0.00118 s⁻¹	1.92e+06 M⁻¹ s⁻¹	–	–	–	–	–
B13	25.2 nM	0.167 nM	0.000394 s⁻¹	2.37e+06 M⁻¹ s⁻¹	–	–	–	–	–
B14	352 nM	0.346 nM	0.000965 s⁻¹	2.79e+06 M⁻¹ s⁻¹	–	–	–	–	–
B15	–	–	–	–	1.28 nM	–	–	–	–
B16	–	–	–	–	1.36 nM	–	–	–	–
B17	–	–	–	–	1.13 nM	–	–	–	–
B18	–	–	–	–	–	0.311 nM	–	–	–
B19	–	–	–	–	–	–	7.4 nM	0.00247 s⁻¹	333000 M⁻¹ s⁻¹
B20	–	–	–	–	–	–	3.03 nM	0.001 s⁻¹	331000 M⁻¹ s⁻¹
